Test results: the DeepSol protein solubility set

Test: soluble on expression in E. coli; label from the status in PepcDB or PDB records

| Sequence | soluble on expression in E. coli |
| --- | --- |
| PEGSRDILFEECTIKNNIENILRNSYINVGYEEVRSPTLEFYDVYNLENQPISQEKMYKLFDNTGRILVLRPDMTTPIARICATKLKNRVYPLKLSYTGNIYRMNKALNGKISEITQSGIEILGFSSLKADAEVIITAIKAILKTGLKNFKIEIGQVEFFKSIISDTALKEQDTEKLRNFIENKNFSKVEEFILRNSDLIGETSSKVLMNLPNLFGGKEVIEKAEQLTSNKQAIEALKKVRDLYDIVKRAGFGEYILIDLGMVQHINYYTGLIFRGYAHGIGDDLLSGGRYDKLLGQFGYDIPATGLAINVDNLVAALDDCVRENL | not soluble |
| MTDIQDVISPKLAVAIANPIFPAVDSLLRSGRHISTEHLDNHAFLMDFQNELDGFYRRYNVELIRAPEGFFYLRPKATTLIARSVLSELEMLVGKVLCYLYLSPERLAQQGIFSTQEVYDELLNLADEGKLLKAVNQRSSGSDLDKQKLAEKVRAAIGRLRRLGMIQTVGEQNSGKFTISESVFRFGAEVRSGDDPLESQARLIRDGEAATPDSLALEKQAQLMENDTKSADEIDEEFDGEQELEHHHHHH | soluble |
| MGSDKIHHHHHHMTAAVKTTPGFASRLVNGVLAIKPLANLAKHQARQMMIKRAERIGVPWTKEVKTLQARDWKADLTQIENSQLSYPDYYVTSFHAYETGNLSWQAAFEVEPAAYAVHSKVVEGAEEAQGDPMLRQSYHNILKSQIPNEPQDILDVGCSVGLSTFALQAVYSQAKIIGLDLSPYFLAVANYRAQQRQAKINWLHAQAESTGLPDASFDLVSIFLMCHELPQSATRQILAEMRRVLRPGGYLAIMDMNPKSEVYQKMPAYILTLLKSTEPYLDEYFALDIEQAFVEAGFQTPTITNNTHRHRTVIAQVSG | not soluble |
| MAGDPMDKNKLFFIETWGCQMNAEDSEKLAGMLKEMKYEATDNREDADLIIFNTCCVRENAELKVYGNLGTLKKLKDKKPNLIITVCGCMMQQRDMAEHIKKRFPFVDIVMGTHNTQMFPQYLKKVENERTSVVEIWDKEEGIVEGMPIYRSYDMKAFVTIMYGCNNFCTYCIVPYVRGRERSRKPEDIENEIKELVKKGYKEITLLGQNVNSYGKSLDEEMNFALLLRRLNNIEGLLRIRFMTSHPKDLTDDVIAAIADCDKVCEHIHLPVQSGSTTILNKMNRNYTREDYINLVNKIKSGIKNVAITTDIIVGFPGETEEDFEDTLSLVKEVEYDSAFTFLYSIREGTPAAKYENQIPDEVKHKRFNKLLEAVNLISEKKNKEYEGKIVEILVEGKSKNDGSKLMGRTRTGKLVNFEGLESSIGKLINVKITKAQAFSLVGEEVLEHHHHHH | not soluble |
| MYFPIVALIGRYQDTGLDAPLTALAQMLTQAGRRVLVEAETARNAGVSGYPVADWDEIGRTATLAVVMGGDGTVLGAARHLAPYGVPLIGINHGRLGFITDIPLQDAHDALGRVLEGNYQAEDRMLLQGGVWRGEQQMYSASAVNDVVLNRAGRGGMIEVRVELDGAFMYTQRADGLIIATPTGSTAYSLSANGPILHPGMNAMVLVPVAPQTLSNRPIVIPDSGVLNMTLTAMGRVEIGASVHFDMQTWSDLQPGDRITVQRAPHTIRFVHPEGYSFFSTLRRKLHWNLMPQATDNLELEHHHHHH | soluble |
| MGHHHHHHGGHMSLRSYLGSISTSKTEVNSMKMHVLKLLIPTMALLLSACASLPPELGNPDDKSVVTQYSAWLERDPATQSPVRMGGVVANISNQKDRTRVELVNLPIDSAGRPNIHQEPQGRFVAYVPGFLDPITYGEGRLLTLYGTTAPSEQGKVGDYEHTYPVMNAQGYHLWRVEERVEVDDIGPYMFPCRGFYCWPRTMPERDGKIIQEVKEGGS | not soluble |
| MGSDKIHHHHHHMNAVQVLNFQQNSVRTVADNKGELWFLANDVCEILGYTNPRRTVDLHCKSRGVTKRYTPTTSGEQEMTYINEPNLYRLIIKSRKPAAEAFEEWVMETVLPAIRKTGGCQVGPKTTADDRTGLRQAVAALVGRKGIDYSSAYSMIHQRFNVESIEDLPAGKLPEAVAYVHALTLHTGLTGEVLDAPPKAEPKLPIDGNSLADIAAMVYYGTWMIESGKDISAPLKQLGCRQAVTMWTVWHETRPILKRSAAALEVLRGYADKDASDRIAACLEGIYGKATVR | not soluble |
| MRGSHHHHHHGMASMVNTKPEKTEEDSEEVREQKHKTFVEKYEKQIKHFGMLRRWDDSQKYLSDNVHLVCEETANYLVIWCIDLEVEEKCALMEQVAHQTIVMQFILELAKSLKVDPRACFRQFFTKIKTADRQYMEGFNDELEAFKERVRGRAKLRIEKAMKEYEEEERKKRLGPGGLDPVEVYESLPEELQKCFDVKDVQMLQDAISKMDPTDAKYHMQRCIDSGLWVPNSKASEAKEGEEAGPGDPLLEAVPKTGDEKDVSV | soluble |
| MEVKLWNDKREREMYENFAELFAIIKATEKLEKAYIRDLINPSEYESECQKLIVHFKTLSATLKDTVPNIERFADTYKMDCPAALYRLVTSGLPATVEHRATVAASTSNSASIVAECVQNFITSMDSLKLNMVAVDQVYPLLSDLSASLNKLSILPPDFEGKTKMKEWLSRLSKMGAADELTEQQSRQLHFDLESSYNSFMAALPKAGN | soluble |
| MGSDKIHHHHHHMKAGTQKTLTHSDLVEQGVRFLLASYVDLHGVPKAKAVPISHFDRMMNGSEMFTGAALDGVPQEISDEEVAAHPDMGSAIVLPWSKDIAWLPSDLYTQGEPFNACSRTILKKVRQQAAELGMAMQLGIEAEFFVLKDQEAGGFSPISTRHHLKKPAYDVARLLDNKPWLSELVEAMDSLDWGVYSFDHEDGIGQFEIDFSYFEVLRMADNFTFLRMMANEIARKHGGFASFMPKPYGDRAGSGAHFNISLTDINTGLNLFEPEQDDPRGCGLSTLGYQFIAGVLRHLPAICAVVAPTVNSYKRLVKQGSMSGFTWAPVFCCYGNNNRTNTIRIPLGGKRIEIRAVDSACNPYLGAAMILAAGLEGIRENLDPGDPHLDNMYEKTPEELASLGIRELPKTLEEAIDAFEADPLSRQVFGDQMFSAWTQYKREEWLSYITHVSDWEYDRYLKLF | not soluble |
| MFRMLNSSFEDDPFFSESILAHRENMRQMIRSFSEPFGRDLLSISDGRGRAHNRRGHNDGEDSLTHTDVSSFQTMDQMVSNMRNYMQKLERNFGQLSVDPNGHSFCSSSVMTYSKIGDEPPKVFQASTQTRRAPGGIKETRKAMRDSDSGLEKMAIGHHIHDRAHVIKKSKNKKTGDEEVNQEFINMNESDAHAFDEEWQSEVLKYKPGRHNLGNTRMRSVGHENPGSRELKRREKPQQSPAIEHGRRSNVLGDKLHIKGSSVKSNKKLEHHHHHH | soluble |
| MGSDKIHHHHHHMIRSLWIAKTGLDAQQTQMDVISNNLANVSTNGFKRGRAVFEDLMYQNIRQPGALSSDQTTLPSGLQLGTGVRPVATERIHTQGNPQQTGNSKDVAIIGQGFFQVAMPDGTTAYTRDGSFQVDQNGQLVTSSGFVIQPAITIPANTTSMTVARDGTVSVTQPGSSNNVQVGQLQLATFMNPAGLESMGENLYVQTDASGAPNTTVPGLNGAGVLQQNYVEASNVNVVEELVSMIQTQRAYEINSKAVQTSDQMLQRLTQMG | not soluble |
| MKNKAFGQIMDDAENPGFFKILRSADLSSEIMRGIPLNFIKSISEEELSAKMLLKVSWGSSWPIKICRNPSFYFMEKKGWDQFLSDNGLGNDEFLTFTHQGNMCFTVDIYQIDGKELLTPRRSATIASSSGRNKREQRNNIYKDVKEEEDIESWSESSYPGHKTAESTGRRQRLSLSNKKAKETEKSKKKKMKVESISYDSQDDSLSLVPEFTLTIKKSYLIFLGIPKMFEELHMPTEATMFKIHDPEGKRSWDVMYKFSNNQTRFCAGWIRLAKELGLEIGDVCTFTLIKPTEMLVRVSK | soluble |
| STFEELNGDYSIERMDSVIKALEEVLRSALPQGCITVGVYEAAKSLNVDPDNVVLCILATDDDDVKDVALQIHFTLIQAFCCENDINILRVNNTRRLANILGGAGMHGSEQMDLHCILVTVPHASTWKNPALGKVNRFCRESRCMDQWVPIINLPER | soluble |
| MSLATKFPKNFKLATATAAYQIEGAKDLNGRGFSTWDAIRLEPGRILDNSDPDLSCDGLLKYKEDVALLAEIGVTNYRFSISWSRILPDGTLSTINEEGIKFYRDLCLLLKENNIEPVVTLFHFDMPLAIYDNGTAWLNRENCEHFEKFADLCFQKFGDLVKTWITYNEINCQAWGSIVKVEGEFWLCPERPEIENHKQAPYFGAANMLLTHAKIYRNYDQNYKPTQHGILGITNGGRFCFPATDSQEDIEACNRARDWLFNFTIEPILSGSGDFPVLMRERMPFIPKFSEEEKEIIKGSTDFIGINYYLSFLVRAPKDGEKASSQSQHDGGYVFVEGKWDKICGETWIRYAPDGLLKILRYVKEKYANTPVFITENGCMDIVGQDQEDAFHDQHRIDYISGHLEAVAKALDEGCNVIGYTVWTLMDNFEWDDGFELKFGLCEVDFESPDKTRTMKKSAYFYKEFIKEFKDFHGI | not soluble |
| MGHHHHHHSHAAMAVEPTQIQLSKRWREIESKFAQFRRLNFAQIHTVREETMMVMTEDMPLEISYVPSTYLTEITHVSQALLEVEQLLNAPDLCAKDFEDLFKQEESLKNIKDSLQQSSGRIDIIHSKKTAALQSATPVERVKLQEALSQLDFQWEKVNKMYKDRQGRFDRSVEKWRRFHYDIKIFNQWLTEAEQFLRKTQIPENWEHAKYKWYLKELQDGIGQRQTVVRTLNATGEEIIQQSSKTDASILQEKLGSLNLRWQEVCKQLSDRKKRLEEQKNILSEFQRDLNEFVLWLEEADNIASIPLEPGKEQQLKEKLEQVKLLVEELPLRQGILKQLNETGGPVLVSAPIS | not soluble |
| SLCGEPGCRHEQTAVKAGRSRNWAGSFAKTPGRLFGVGFIRLYQLTLSGFVGNSCRHIPTCSEYGYEAIARHGLWAGGWMALFRVARCGPGGTSGLDPVPEELDGSKRWWTPWRYWSRHR | soluble |
| GRVESVWDLKGVWADQAQSDSQGSTTTATRNALPEHPNALAFQVSVVEASAYKPNTSSGQTQSTNSSPYLHLVKPKKVTQSDKLDDDLKNLLDPNQVRTKLRQSFGTDHSTQPQPQSLKTTTPVFGTSSGNLSSVLSGGGAGGGSSGSGQSGVDLSPVEKVSGWLVGQLPSTSDGNTSSTNNLAPNTNTGNDVVGVGRLSESNAAKMNDDVDGIVRTPLAELLDGEGQTADTGPQSVKFKSPDQIDFNRLFTHPVTDLFDPVTMLVYDQYIPLFIDIPASVNPKMVRLKVLSFDTNEQSLGLRLEFFKPDQDTQPNNNVQVNPNNGDFLPLLTASSQGPQTLFSPF | soluble |
| MYKIMPLKVAEISVPLGVTIMMGDMRVMATGPVYVWVIDGGDEKIVVDSGVEEAKNGMFHGFPGKGGGEKGLREAMEKVNLKPEDVDKLIITHLHFDHAANAKLFTNARIYVQKREWESALNPPLHYRQTYDSSMLYPLEEMDLCLIDGDVEIAEGVKAVLLPGHTKGLQGVAVETEKGTYLLAADHFYTYFNFFPPKQPIQMTDTAGNTVEIPTSPLPFLPPGLHVDLSEWYESCFKALSVAKKANILPGHDPSLEGRVFPLEHHHHHH | not soluble |
| MATKSVLMLGSGFVTRPTLDVLTDSGIKVTVACRTLESAKKLSAGVQHSTPISLDVNDDAALDAEVAKHDLVISLIPYTFHATVIKSAIRQKKHVVTTSYVSPAMMELDQAAKDAGITVMNEIGLDPGIDHLYAIKTIEEVHAAGGKIKTFLSYCGGLPAPESSDNPLGYKFSWSSRGVLLALRNAASFYKDGKVTNVAGPELMATAKPYFIYPGFAFVAYPNRDSTPYKERYQIPEADNIVRGTLRYQGFPQFIKVLVDIGFLSDEEQPFLKEAIPWKEATQKIVKASSASEQDIVSTIVSNATFESTEEQKRIVAGLKWLGIFSDKKITPRGNALDTLCATLEEKMQFEEGERDLVMLQHKFEIENKDGSRETRTSSLCEYGAPIGSGGYSAMAKLVGVPCAVAVKFVLDGTISDRGVLAPMNSKINDPLMKELKEKYGIECKEKVVA | soluble |
